Measurements published in PMC13042514, “Comprehensive Profiling of N 6‐methyladnosine (m6A) Readouts Reveals Novel m6A Readers That Regulate Human Embryonic Stem Cell Differentiation”.

What was measured:
Assay in all cases: EMSA; EMSA: Beyotime GS606 kit binding buffer (composition not given), 1 ug protein and 1 uL of 2.5 nM biotin probe in 10 uL, on ice 10 min; pull-down: Pierce 20164 kit, 50 pmol RNA, 200 ug total protein, 4 C 30-60 min
Details in all cases: protein: recombinant; tags: GST; label: biotin; single strand
GST-DDX6 = GST-DDX6 (UniProt P26196 1-483)
Sequence of GST-DDX6 (P26196 whole entry): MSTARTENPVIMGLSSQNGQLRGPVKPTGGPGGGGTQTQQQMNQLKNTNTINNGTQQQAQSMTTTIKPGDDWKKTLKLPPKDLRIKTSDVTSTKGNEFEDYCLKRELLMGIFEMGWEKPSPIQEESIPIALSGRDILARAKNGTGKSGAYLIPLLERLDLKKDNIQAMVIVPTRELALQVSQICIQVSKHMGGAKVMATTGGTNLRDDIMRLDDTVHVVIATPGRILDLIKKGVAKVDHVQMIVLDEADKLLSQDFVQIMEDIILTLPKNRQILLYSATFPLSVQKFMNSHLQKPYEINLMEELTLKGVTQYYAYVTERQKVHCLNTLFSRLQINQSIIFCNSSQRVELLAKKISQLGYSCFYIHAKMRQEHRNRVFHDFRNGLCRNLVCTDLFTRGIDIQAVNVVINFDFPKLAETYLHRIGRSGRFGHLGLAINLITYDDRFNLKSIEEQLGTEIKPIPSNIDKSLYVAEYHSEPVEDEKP

GST-L1TD1 = molecular target: T1, GST-L1TD1 (UniProt Q5T7N2 1-865)
T1 sequence: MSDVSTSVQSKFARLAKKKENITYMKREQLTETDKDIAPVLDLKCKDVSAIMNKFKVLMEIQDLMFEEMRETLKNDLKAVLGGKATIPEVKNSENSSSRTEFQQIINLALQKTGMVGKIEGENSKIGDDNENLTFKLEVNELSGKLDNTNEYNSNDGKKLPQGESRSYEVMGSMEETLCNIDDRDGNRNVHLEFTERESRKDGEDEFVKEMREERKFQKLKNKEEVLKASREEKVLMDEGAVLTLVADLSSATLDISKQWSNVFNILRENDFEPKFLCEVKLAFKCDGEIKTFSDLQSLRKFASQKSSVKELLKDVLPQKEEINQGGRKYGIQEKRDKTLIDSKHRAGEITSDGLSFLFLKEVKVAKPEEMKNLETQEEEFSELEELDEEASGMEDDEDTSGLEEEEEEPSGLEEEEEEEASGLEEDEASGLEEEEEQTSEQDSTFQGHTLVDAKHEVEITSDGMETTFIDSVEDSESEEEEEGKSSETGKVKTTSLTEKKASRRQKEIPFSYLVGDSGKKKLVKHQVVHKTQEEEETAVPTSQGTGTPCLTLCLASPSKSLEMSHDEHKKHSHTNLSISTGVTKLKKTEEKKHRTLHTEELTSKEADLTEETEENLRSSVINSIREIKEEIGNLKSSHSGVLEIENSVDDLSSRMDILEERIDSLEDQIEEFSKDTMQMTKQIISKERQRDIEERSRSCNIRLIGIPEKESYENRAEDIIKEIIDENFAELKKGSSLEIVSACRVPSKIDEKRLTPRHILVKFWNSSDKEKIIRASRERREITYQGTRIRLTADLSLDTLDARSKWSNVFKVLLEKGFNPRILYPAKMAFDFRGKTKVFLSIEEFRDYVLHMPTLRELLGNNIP

GST-FXR2 = GST-FXR2 (UniProt P51116 1-673)
Sequence of GST-FXR2 (P51116 whole entry): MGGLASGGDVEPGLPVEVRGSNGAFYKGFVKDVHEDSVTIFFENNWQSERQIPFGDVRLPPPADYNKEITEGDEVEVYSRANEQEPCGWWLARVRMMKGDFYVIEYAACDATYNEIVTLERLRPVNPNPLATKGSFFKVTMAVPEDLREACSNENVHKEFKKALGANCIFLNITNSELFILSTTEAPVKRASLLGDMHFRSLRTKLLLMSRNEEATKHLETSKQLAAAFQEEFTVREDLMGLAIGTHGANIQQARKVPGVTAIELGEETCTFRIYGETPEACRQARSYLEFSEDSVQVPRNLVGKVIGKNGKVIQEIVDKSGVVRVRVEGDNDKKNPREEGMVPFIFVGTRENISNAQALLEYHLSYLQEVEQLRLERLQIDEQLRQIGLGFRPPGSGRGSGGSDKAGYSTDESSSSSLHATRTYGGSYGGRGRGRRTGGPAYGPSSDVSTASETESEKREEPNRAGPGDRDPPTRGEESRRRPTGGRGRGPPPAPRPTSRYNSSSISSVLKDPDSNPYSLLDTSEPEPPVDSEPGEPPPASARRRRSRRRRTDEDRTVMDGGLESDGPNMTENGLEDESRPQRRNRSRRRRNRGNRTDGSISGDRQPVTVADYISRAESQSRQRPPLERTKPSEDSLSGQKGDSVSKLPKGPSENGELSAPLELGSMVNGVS

GST-FUBP3 = GST-FUBP3 (UniProt Q96I24 1-572)
Sequence of GST-FUBP3 (Q96I24 whole entry): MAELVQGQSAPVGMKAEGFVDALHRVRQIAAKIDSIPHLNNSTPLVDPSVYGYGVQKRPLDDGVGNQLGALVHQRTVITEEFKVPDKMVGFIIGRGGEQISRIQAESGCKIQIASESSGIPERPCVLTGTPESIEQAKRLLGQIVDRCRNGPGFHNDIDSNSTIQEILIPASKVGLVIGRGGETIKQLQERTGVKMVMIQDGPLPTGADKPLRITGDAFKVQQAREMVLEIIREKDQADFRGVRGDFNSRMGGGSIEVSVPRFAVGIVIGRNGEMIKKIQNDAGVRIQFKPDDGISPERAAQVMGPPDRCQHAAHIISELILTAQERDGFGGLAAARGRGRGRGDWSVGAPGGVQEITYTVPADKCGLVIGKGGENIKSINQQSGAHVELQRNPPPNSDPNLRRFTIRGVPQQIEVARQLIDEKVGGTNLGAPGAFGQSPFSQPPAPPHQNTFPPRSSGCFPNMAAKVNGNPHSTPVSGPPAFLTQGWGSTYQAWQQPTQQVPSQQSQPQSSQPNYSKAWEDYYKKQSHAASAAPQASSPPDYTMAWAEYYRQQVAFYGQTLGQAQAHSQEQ

Measured: binding result

CGUCUCGGACUCGGACUGCU (ssRNA, m6A at positions 9 and 15) [ss-m6A (EMSA)]
binds: all assays above
